The values that follow come from FireProtDB (doi:10.1016/j.jmb.2006.03.027).

For the series the following is noted: Saccharomyces cerevisiae (strain ATCC 204508 / S288c); pH 7; Thermal; CD; potassium phosphate 25 mM; reversible: Yes; whole UniProt chain shown.

Values joined by “and” are separate entries in the source; they are usually repeats but may differ in a detail not shown here. Equal entries are not always repeated.

B1: GrpE protein homolog, mitochondrial wild type, P38523 (protein)
chain: MRAFSAATVRATTRKSFIPMAPRTPFVTPSFTKNVGSMRRMRFYSDEAKSEESKENNEDLTEEQSEIKKLESQLSAKTKEASELKDRLLRSVADFRNLQQVTKKDIQKAKDFALQKFAKDLLESVDNFGHALNAFKEEDLQKSKEISDLYTGVRMTRDVFENTLRKHGIEKLDPLGEPFDPNKHEATFELPQPDKEPGTVFHVQQLGFTLNDRVIRPAKVGIVKGEEN
On to B1, for which the Tm (commonly the temperature at which the thermal transition is half complete) is 53.2 °C and 52.5 °C and 52.4 °C.
